Test results published in patent publication US20150322129A1 (Sanofi, published 2015).
Numbered stars: 1 amine (or outer) side, 2 acyl side, 3 side chain; on linkers, the order of the positions; unused ones are H or OH. Square brackets hold non-standard residues; d marks the D form. Side chains are listed from the residue outwards. Ends that are not written are not given here. * marks the point of attachment. γGlu = O=C(O)[C@H](CCC(=O)[*:2])N[*:1]; Stearoyl = CCCCCCCCCCCCCCCCCC(=O)*; Palmitoyl = CCCCCCCCCCCCCCCC(=O)*; AEEA = NCCOCCOCC(=O)O; Aib = CC(C)(N)C(=O)O

T1: human GIP receptor (human, UniProt P48546 22-466)
T1 sequence (looked up): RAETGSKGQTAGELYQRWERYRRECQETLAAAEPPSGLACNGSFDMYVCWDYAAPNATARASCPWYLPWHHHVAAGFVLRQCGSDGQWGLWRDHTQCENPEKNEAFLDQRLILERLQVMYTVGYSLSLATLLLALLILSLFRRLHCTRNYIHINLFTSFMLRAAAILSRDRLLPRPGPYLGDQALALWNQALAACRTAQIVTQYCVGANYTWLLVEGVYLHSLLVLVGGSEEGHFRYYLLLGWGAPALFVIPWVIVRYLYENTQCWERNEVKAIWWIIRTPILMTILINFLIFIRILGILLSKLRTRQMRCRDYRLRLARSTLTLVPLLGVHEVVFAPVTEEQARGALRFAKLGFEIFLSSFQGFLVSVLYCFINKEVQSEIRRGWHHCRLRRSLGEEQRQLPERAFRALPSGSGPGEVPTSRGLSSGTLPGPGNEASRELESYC

B1: SEQ ID NO: 23 (peptide)
peptide: H-H[dS]QGTFTSDLSKQK([γGlu-γGlu-Palmitoyl])DEEAVRLFIEWLKAGGPSSGAPPPS-NH2
SMILES: CCCCCCCCCCCCCCCC(=O)N[C@@H](CCC(=O)N[C@@H](CCC(=O)NCCCC[C@H](NC(=O)[C@H](CCC(N)=O)NC(=O)[C@H](CCCCN)NC(=O)[C@H](CO)NC(=O)[C@H](CC(C)C)NC(=O)[C@H](CC(=O)O)NC(=O)[C@H](CO)NC(=O)[C@@H](NC(=O)[C@H](Cc1ccccc1)NC(=O)[C@@H](NC(=O)CNC(=O)[C@H](CCC(N)=O)NC(=O)[C@@H](CO)NC(=O)[C@@H](N)Cc1c[nH]cn1)[C@@H](C)O)[C@@H](C)O)C(=O)N[C@@H](CC(=O)O)C(=O)N[C@@H](CCC(=O)O)C(=O)N[C@@H](CCC(=O)O)C(=O)N[C@@H](C)C(=O)N[C@H](C(=O)N[C@@H](CCCNC(=N)N)C(=O)N[C@@H](CC(C)C)C(=O)N[C@@H](Cc1ccccc1)C(=O)N[C@H](C(=O)N[C@@H](CCC(=O)O)C(=O)N[C@@H](Cc1c[nH]c2ccccc12)C(=O)N[C@@H](CC(C)C)C(=O)N[C@@H](CCCCN)C(=O)N[C@@H](C)C(=O)NCC(=O)NCC(=O)N1CCC[C@H]1C(=O)N[C@@H](CO)C(=O)N[C@@H](CO)C(=O)NCC(=O)N[C@@H](C)C(=O)N1CCC[C@H]1C(=O)N1CCC[C@H]1C(=O)N1CCC[C@H]1C(=O)N[C@@H](CO)C(N)=O)[C@@H](C)CC)C(C)C)C(=O)O)C(=O)O
B2: SEQ ID NO: 19 (peptide)
peptide: H[dS]QGTFTSDLSKQK([γGlu-Stearoyl])DEEAVRLFIEWLKAGGPSSGAPPPS-NH2
modifications: N-terminus assumed
SMILES: CCCCCCCCCCCCCCCCCC(=O)N[C@@H](CCC(=O)NCCCC[C@H](NC(=O)[C@H](CCC(N)=O)NC(=O)[C@H](CCCCN)NC(=O)[C@H](CO)NC(=O)[C@H](CC(C)C)NC(=O)[C@H](CC(=O)O)NC(=O)[C@H](CO)NC(=O)[C@@H](NC(=O)[C@H](Cc1ccccc1)NC(=O)[C@@H](NC(=O)CNC(=O)[C@H](CCC(N)=O)NC(=O)[C@@H](CO)NC(=O)[C@@H](N)Cc1c[nH]cn1)[C@@H](C)O)[C@@H](C)O)C(=O)N[C@@H](CC(=O)O)C(=O)N[C@@H](CCC(=O)O)C(=O)N[C@@H](CCC(=O)O)C(=O)N[C@@H](C)C(=O)N[C@H](C(=O)N[C@@H](CCCNC(=N)N)C(=O)N[C@@H](CC(C)C)C(=O)N[C@@H](Cc1ccccc1)C(=O)N[C@H](C(=O)N[C@@H](CCC(=O)O)C(=O)N[C@@H](Cc1c[nH]c2ccccc12)C(=O)N[C@@H](CC(C)C)C(=O)N[C@@H](CCCCN)C(=O)N[C@@H](C)C(=O)NCC(=O)NCC(=O)N1CCC[C@H]1C(=O)N[C@@H](CO)C(=O)N[C@@H](CO)C(=O)NCC(=O)N[C@@H](C)C(=O)N1CCC[C@H]1C(=O)N1CCC[C@H]1C(=O)N1CCC[C@H]1C(=O)N[C@@H](CO)C(N)=O)[C@@H](C)CC)C(C)C)C(=O)O
B3: SEQ ID NO: 21 (peptide)
peptide: H-H[dS]HGTFTSDLSKQK([γGlu-γGlu-Palmitoyl])DEEAVRLFIEWLKAGGPSSGAPPPS-NH2
SMILES: CCCCCCCCCCCCCCCC(=O)N[C@@H](CCC(=O)N[C@@H](CCC(=O)NCCCC[C@H](NC(=O)[C@H](CCC(N)=O)NC(=O)[C@H](CCCCN)NC(=O)[C@H](CO)NC(=O)[C@H](CC(C)C)NC(=O)[C@H](CC(=O)O)NC(=O)[C@H](CO)NC(=O)[C@@H](NC(=O)[C@H](Cc1ccccc1)NC(=O)[C@@H](NC(=O)CNC(=O)[C@H](Cc1c[nH]cn1)NC(=O)[C@@H](CO)NC(=O)[C@@H](N)Cc1c[nH]cn1)[C@@H](C)O)[C@@H](C)O)C(=O)N[C@@H](CC(=O)O)C(=O)N[C@@H](CCC(=O)O)C(=O)N[C@@H](CCC(=O)O)C(=O)N[C@@H](C)C(=O)N[C@H](C(=O)N[C@@H](CCCNC(=N)N)C(=O)N[C@@H](CC(C)C)C(=O)N[C@@H](Cc1ccccc1)C(=O)N[C@H](C(=O)N[C@@H](CCC(=O)O)C(=O)N[C@@H](Cc1c[nH]c2ccccc12)C(=O)N[C@@H](CC(C)C)C(=O)N[C@@H](CCCCN)C(=O)N[C@@H](C)C(=O)NCC(=O)NCC(=O)N1CCC[C@H]1C(=O)N[C@@H](CO)C(=O)N[C@@H](CO)C(=O)NCC(=O)N[C@@H](C)C(=O)N1CCC[C@H]1C(=O)N1CCC[C@H]1C(=O)N1CCC[C@H]1C(=O)N[C@@H](CO)C(N)=O)[C@@H](C)CC)C(C)C)C(=O)O)C(=O)O
B4: SEQ ID NO: 15 (peptide)
peptide: H[dS]HGTFTSDLSKQK([γGlu-Stearoyl])DEEAVRLFIEWLKAGGPSSGAPPPS-NH2
modifications: N-terminus assumed
SMILES: CCCCCCCCCCCCCCCCCC(=O)N[C@@H](CCC(=O)NCCCC[C@H](NC(=O)[C@H](CCC(N)=O)NC(=O)[C@H](CCCCN)NC(=O)[C@H](CO)NC(=O)[C@H](CC(C)C)NC(=O)[C@H](CC(=O)O)NC(=O)[C@H](CO)NC(=O)[C@@H](NC(=O)[C@H](Cc1ccccc1)NC(=O)[C@@H](NC(=O)CNC(=O)[C@H](Cc1c[nH]cn1)NC(=O)[C@@H](CO)NC(=O)[C@@H](N)Cc1c[nH]cn1)[C@@H](C)O)[C@@H](C)O)C(=O)N[C@@H](CC(=O)O)C(=O)N[C@@H](CCC(=O)O)C(=O)N[C@@H](CCC(=O)O)C(=O)N[C@@H](C)C(=O)N[C@H](C(=O)N[C@@H](CCCNC(=N)N)C(=O)N[C@@H](CC(C)C)C(=O)N[C@@H](Cc1ccccc1)C(=O)N[C@H](C(=O)N[C@@H](CCC(=O)O)C(=O)N[C@@H](Cc1c[nH]c2ccccc12)C(=O)N[C@@H](CC(C)C)C(=O)N[C@@H](CCCCN)C(=O)N[C@@H](C)C(=O)NCC(=O)NCC(=O)N1CCC[C@H]1C(=O)N[C@@H](CO)C(=O)N[C@@H](CO)C(=O)NCC(=O)N[C@@H](C)C(=O)N1CCC[C@H]1C(=O)N1CCC[C@H]1C(=O)N1CCC[C@H]1C(=O)N[C@@H](CO)C(N)=O)[C@@H](C)CC)C(C)C)C(=O)O
B5: SEQ ID NO: 29 (peptide)
peptide: H-H[Aib]HGTFTSDLSKQK([AEEA-AEEA-AEEA-Stearoyl])EEEAVRLFIEWLKAGGPSSGAPPPS-NH2
B6: SEQ ID NO: 6 (peptide)
peptide: H[Aib]QGTFTSDLSKQK([γGlu-Stearoyl])EEEAVRLFIEWLKAGGPSSGAPPPS-NH2
B7: SEQ ID NO: 10 (peptide)
peptide: HSHGTFTSDLSKQK([γGlu-Stearoyl])EEEAVRLFIEWLKAGGPSSGAPPPS-NH2
B8: SEQ ID NO: 28 (peptide)
peptide: H-H[Aib]HGTFTSDLSKQK([AEEA-AEEA-γGlu-Stearoyl])EEEAVRLFIEWLKAGGPSSGAPPPS-NH2
B9: SEQ ID NO: 27 (peptide)
peptide: H-H[Aib]HGTFTSDLSKQK([AEEA-AEEA-γGlu-Palmitoyl])EEEAVRLFIEWLKAGGPSSGAPPPS-NH2
B10: SEQ ID NO: 24 (peptide)
peptide: H-H[Aib]QGTFTSDLSKQK([γGlu-γGlu-Palmitoyl])EEEAVRLFIEWLKAGGPSSGAPPPS-NH2
SMILES: CCCCCCCCCCCCCCCC(=O)N[C@@H](CCC(=O)N[C@@H](CCC(=O)NCCCC[C@H](NC(=O)[C@H](CCC(N)=O)NC(=O)[C@H](CCCCN)NC(=O)[C@H](CO)NC(=O)[C@H](CC(C)C)NC(=O)[C@H](CC(=O)O)NC(=O)[C@H](CO)NC(=O)[C@@H](NC(=O)[C@H](Cc1ccccc1)NC(=O)[C@@H](NC(=O)CNC(=O)[C@H](CCC(N)=O)NC(=O)C(C)(C)NC(=O)[C@@H](N)Cc1c[nH]cn1)[C@@H](C)O)[C@@H](C)O)C(=O)N[C@@H](CCC(=O)O)C(=O)N[C@@H](CCC(=O)O)C(=O)N[C@@H](CCC(=O)O)C(=O)N[C@@H](C)C(=O)N[C@H](C(=O)N[C@@H](CCCNC(=N)N)C(=O)N[C@@H](CC(C)C)C(=O)N[C@@H](Cc1ccccc1)C(=O)N[C@H](C(=O)N[C@@H](CCC(=O)O)C(=O)N[C@@H](Cc1c[nH]c2ccccc12)C(=O)N[C@@H](CC(C)C)C(=O)N[C@@H](CCCCN)C(=O)N[C@@H](C)C(=O)NCC(=O)NCC(=O)N1CCC[C@H]1C(=O)N[C@@H](CO)C(=O)N[C@@H](CO)C(=O)NCC(=O)N[C@@H](C)C(=O)N1CCC[C@H]1C(=O)N1CCC[C@H]1C(=O)N1CCC[C@H]1C(=O)N[C@@H](CO)C(N)=O)[C@@H](C)CC)C(C)C)C(=O)O)C(=O)O
B11: SEQ ID NO: 8 (peptide)
peptide: HXHGTFTSDLSKQKDEEAVRLFIEWLKAGGPSSGAPPPS
modifications: Aib at position 2; Lys 14 side-chain NH2 acylated with γE-x70 = (S)-4-Carboxy-4-octadecanoylamino-butyryl-; C-terminal amide (NH2)

target: human GLP-1 receptor (human, UniProt P43220 24-463); test: cell-based or functional assay

Compared with B1, B2 is 2.9-fold higher in “EC50 hGLP-1R (cAMP formation)” value: 0.0012 nM for the first, 0.0035 nM for the second.

Going from B3 to B4, the “EC50 hGLP-1R (cAMP formation)” value rises from 0.0008 nM to 0.0044 nM (5.5-fold).

First: B5
Second: B6
The “EC50 hGLP-1R (cAMP formation)” value of the first is 2-fold lower: 0.0047 nM for the first, 0.0094 nM for the second.

B7 and B8 are within 1.5-fold of each other in “EC50 hGLP-1R (cAMP formation)” value: 0.0034 nM for the first, 0.0038 nM for the second.

target: human glucagon receptor (human, UniProt P47871 26-477); test: cell-based or functional assay
Sequence (P47871 26-477): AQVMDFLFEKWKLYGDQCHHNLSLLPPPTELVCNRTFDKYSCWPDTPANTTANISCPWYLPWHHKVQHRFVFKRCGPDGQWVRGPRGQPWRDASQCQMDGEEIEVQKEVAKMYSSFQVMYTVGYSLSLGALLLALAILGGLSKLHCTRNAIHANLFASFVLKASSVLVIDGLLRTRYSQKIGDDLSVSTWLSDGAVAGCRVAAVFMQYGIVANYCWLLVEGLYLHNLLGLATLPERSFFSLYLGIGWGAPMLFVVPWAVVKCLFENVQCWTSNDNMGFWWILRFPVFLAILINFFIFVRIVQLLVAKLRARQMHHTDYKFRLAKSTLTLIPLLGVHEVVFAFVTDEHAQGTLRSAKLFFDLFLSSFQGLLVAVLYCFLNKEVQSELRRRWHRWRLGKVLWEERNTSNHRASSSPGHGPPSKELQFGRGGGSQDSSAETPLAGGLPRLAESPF

B1 and B2 are within 1.5-fold of each other in “EC50 hGlucagon-R (cAMP formation)” value: 0.124 nM for the first, 0.129 nM for the second.

B3 and B4 are within 1.5-fold of each other in “EC50 hGlucagon-R (cAMP formation)” value: 0.0859 nM for the first, 0.064 nM for the second.

B9 and B5 are within 1.5-fold of each other in “EC50 hGlucagon-R (cAMP formation)” value: 0.0234 nM for the first, 0.0179 nM for the second.

Going from B6 to B7, the “EC50 hGlucagon-R (cAMP formation)” value falls from 0.309 nM to 0.0069 nM (45-fold).

Going from B10 to B11, the “EC50 hGlucagon-R (cAMP formation)” value falls from 0.261 nM to 0.0245 nM (11-fold).

For B8, the “EC50 hGlucagon-R (cAMP formation)” value was 0.0171 nM.

target: T1, human GIP receptor; test: cell-based or functional assay

B1 and B2 are within 1.5-fold of each other in “EC50 hGIP-R (cAMP formation)” value: 0.35 nM for the first, 0.4 nM for the second.

First: B3
Second: B4
The “EC50 hGIP-R (cAMP formation)” value of the first is 5.6-fold lower: 0.0994 nM for the first, 0.555 nM for the second.

Going from B9 to B5, the “EC50 hGIP-R (cAMP formation)” value rises from 0.0095 nM to 0.0476 nM (5-fold).

B6 and B7 are within 1.5-fold of each other in “EC50 hGIP-R (cAMP formation)” value: 0.0607 nM for the first, 0.0711 nM for the second.

B10 and B11 are within 1.5-fold of each other in “EC50 hGIP-R (cAMP formation)” value: 0.0199 nM for the first, 0.0258 nM for the second.

For B8, the “EC50 hGIP-R (cAMP formation)” value was 0.017 nM.
